The text below walks through data of a protein production outcome set (Wang et al. 2014).
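Note: failed if final PepcDB status was selected cloned or expressed and not failed if soluble or beyond.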

This data set in a line: label from the status in PepcDB records.
“MVGIYIGSTAAAAGKNLACMALGLVLGRDGRSVGYMKPYGQRPRMVDDRTGDIDAMLVQEVLGQNADPEVVTPVVEPANIRAMSLRGGNALERVGAAYTALARGRDVMLVGGTGSLFHTGRARGLDGLALVRRLDLRVVLVERYHPHPEGGGIDHDAILYAADVLGDRLAGVLLNDLPESYQRDAEEVLVPYLAEHGVRVLGLVPHDPLLHAIRASDLAVRLGGRLVCGGKGSQRLVEGFLIGTMQVENFMSHFRRHANTATIVGGDRTDLQLVALEGQCPCLVLTGNMPPDELIRQRSEQHGAPVIVVREDTYTVARKMEEILNSQKLRDLVTIRRGADIVAGALDRAALLAQTGIPKGENR”: the protein production entry was “failed”.

For “MVGLLVEDTIDDQGWNRKAYEGLLNIHSNLDVDVVLEEGVNSEQKAHRRIKELVDGGVNLIFGHGHAFAEYFSTIHNQYPDVHFVSFNGEVKGENITSLHFEGYAMGYFGGMVAASMSETHKVGVIAAFPWQPEVEGFVDGAKYMNESEAFVRYVGEWTDADKALELFQELQKEQVDVFYPAGDGYHVPVVEAIKDQGDFAIGYVGDQADLGGSTILTSTVQHVDDLYVLVAKRFQEGKLESGNLYYDFQDGVVSLGEFSSVVPDEVREQITDAISTYIQTGQFPHEEER”, the protein production result is on record as “not failed”.

On to “MVGLVACSKQSANQQISYRQTAEATLDKGMDNQPEAPYWFPKQLLKWQLSKDKAAKYNTASVPLAKRIDKWQLPTVNKTQDPKMKVVALSIMNSSTSGNAPRGINTFDANVFSNWQYIDQLVYWGGSAGEGLIVPPTADVIDSAHKNGVPVLGTVFFPQVVSGGKLKWLNDFLKQDADGHFPMADKLVAVAKAYGFDGWFINQETDPEVKSFDSASTGKTATSSTSNGLSKKHAQLMQQLIKEYKQKAGSKLDLMWYDSMTKDGKMDWQNALTKENQSYLVDANMKPVADSMFLNFWWTKKRLASQELLKKSHERAEKLGISPYNLFAGIDVQADGTATPVRWNLFANKQHVPYTSLGLYAPDWTHASSDTVDEFQAKEGALWVNDQNDPSRLEHHHHHH”, for which the protein production entry is reported as “not failed”.

As to “MVGPLGKPIKVKYYGNVVFASDAVCGQAENYATLKAMKEVGNYTISIQTFENAENVYPEEFLAKPVADEHYLTTEDGSVGIKGHYLDIVKELIEKDKVDIIFAGGKLGSLAKLAELTRPYGIPTYATVRQIMVDGLEHHHHHH”, the protein production result is “not failed”.

Consider “MVGSVYTLFLYFSIILGVIVGVRTRSFHSSLAVLVFSSTFVAGIKYNNSYIAIISWLALSTLSSYLFHLNVIIKSRKDESVSNVLMGYLLGFFILLTLKLHGAGWILSILASYWVFYILLMFDYSKNRRAYYLLKTLWIIFSWGALIEAFGLQKELLPFLVVYTLIFILWFKRQEYSPT”, for which the protein production result is “failed”.

On to “MVGTFLGTGASSGVPMLNCSCKVCTSSYSKNKRLRSSFFLESSSGIKLLIDTGPDIRQQLLREKIDRLDLVLYTHEHYDHIMGFDDIKFYTRCAPLNIYARDTAMAHIRNAFPYNFTSKPSLSGKADIIANVIRDFEPFFFKSLKIVPIPLIHGDIISLGYRVGNLAYLTDVKFIPEASYDYLKNLDLLIIDAMRIKPHPAHLNFSEAFCVIKKINPKISYFTHIAHDIMHEEFDYLEKDNIYLAYDGLKIYILEHHHHHH”, for which the protein production result is reported as “failed”.

Regarding “MVHETDKDPAPAVGPLASAMPRGNFAASLRSPGAKFLMIGFISLVLLVPLLLVWGLTEERASRAREVSARIANGWGGDQVVNGPYLAVPFDVERRREVDGRTIVDRTTEWALVMPETLQVTADLKTEEKKLSIYSLPVYNGALVLKGRFGQGVLQDLARFAGTPRLDNAILVLSIGDITGIRSSAGVRINGGAVLPFDPGMRDMSVIASRALENNSIRSDAGVHRQIDRNLIESGFDFDIAFSLNGSGSFAVAPAGQTTSFTAKADWPHPGFEGLFLPEVKTVTAADFNASWTIPYLARGIDRVVEGPRLPLSNSLMTINLVEPVKFYQVIARTLKYSIGFISLVFLAVFIVELKGGSVVHWIQYVLTGLALIVFYVLLLALAEHTGFTVAYAAASFSTAALIAFYLGSATRSRRNGLALFSVLAVAYGVMYLVLNEDEYALLAGAVISFIAIAATMFATRKVDWSGAGTAANSEFSSRT”, the protein production result was “failed”.

“MVHGLDRRLGLAGRIRPDALVADRCGTLIMLAGERFYRLDPMSGRLERIPCLGGRGDRAGELSGPRAMALGSRNLYVADTDNNRVCVFATVNWQVRRFIGAENPAGEPAAGTGPGEFDRPLDLAVDPCDNLYVLDAGNRRIQRFDYHGEPVPHVPPFGADRLKQPVALALGPAPSPSGGGALVHCLDTGLTAIVTFDDQGRFLGTVGLDDLGFEPAGLAVDADGKWYVSDRERFIYAIRSAGDWSPLEEYEGKALRLFAGPGGEFYALEDGEVARLTRRRRYPPAGSWTGSGPVTGIYTSRSFDTGDGRLFWHRVTLDATVPPKTQVRLSYFIYETGRDPELLPADGEWRSFPSNPADALFERKEGRYLRVRLELISEDRHATPTVVSLRLQFPKQSYLRYLPAVFQDDERGRDFLERFLSLFESVLYDLEREIFTTRRYADPCAVPAGFLPWLASWLALPDADQWLEDGGARLRTLIARANELYRCRGTRGGLAELITLYTGKEPWIVEAFQLDRIRGRSEWRETMRLFGEDPYHFTVLLPPGGAGRTETVKRIVARERPAHTCATVVALENLFRLGGHTYLEVNTNLNQPLFALETSSSLARQTYLADGEKAGQAQVRARQGMDTLFE”: the protein production result is recorded as “failed”.

On to “MVHHGQMHAQPGVGLRPDTPVASGQLPSTSIRSRRSGISKAQRETWERLWPELGLLALPQSPRGTPVDTRAWFGRDAPVVLEIGSGSGTSTLAMAKAEPHVDVIAVDVYRRGLAQLLCAIDKVGSDGINIRLILGNAVDVLQHLIAPDSLCGVRVFFPDPWPKARHHKRRLLQPATMALIADRLVPSGVLHAATDHPGYAEHIAAAGDAEPRLVRVDPDTELLPISVVRPATKYERKAQLGGGAVIELLWKKHGCSERDLKIR”, for which the protein production entry is “failed”.

For “MVHMGYKITDKRDLSPIDFFVEVEAPHIAKAWKPGQFVIFILHERGERVPMSVYKAENGRIGMFIRKLGKTSLQLYYEFNVGDEFYSMVGPLGKPIKVKYYGNVVFASDAVCGQAENYATLKAMKEVGNYTISIQTFENAENVYPEEFLAKPVADEHYLTTEDGSVGIKGHYLDIVKELIEKDKVDIIFAGGKLGSLAKLAELTRPYGIPTYATVRQIMVDGTGMCGSCRILYDGEVKFACRDGPVFDAHKVDWEDVLRRANRFLEQERLAKERYLEYLRKKGVI”, the protein production entry is “failed”.

For “MVHQSEMENYNIGQASIEEVSDPAYKGAKIVVIGVGGGGSNMIKHLVEYGVHQDVTPIATNTDGQHLKNNPAPVKILLGKESTGGLGAGGIPDIGRKAAEESANEIKEAIKDAKLVIISTGLGGGTGTGATPTIVKIAKEVGALTIAIVTKPFKYEGNQKRKRAEEGLKELEQSSDSILVIPNDKILLTMKKNASTTECYREVDDVLVRAVSGISTIITKPGNINVDFADLKSALGFKGFALMGIGEATGEESAKLAVQNAIQSPLLDDASIEGAKSIIVFFEHHPDYPMMAYSQACDFIQDQAHQDVDVKFGQHTSDNIPIDHVRVTIIATGAERNSGGASLESIATPSQPVVKQTRKVGNGEYLKIPTEEELSIPTTMRIQQD”, the protein production result is recorded as “failed”.

On to “MVIGLIATLYRPKEATLYVLLYLLLGAIGLPVFSGGNGGLHTFIGQTGGFLLFFPLRALVTSLIANRKKILIQIFIANFLGEVVLFIGGAIGFIIFTHSLILTTLKLVVLPFVLPDLIKITLTTLFSLLLLKALQSQSYFKIEK”, for which the protein production entry is listed as “failed”.

As to “MVINLNDKQTKTSKEGLISVSHPLAAKIGKDVLDQGGNAMDAVIAIQLALNVVEPFASGIGGGGYLLYYEQSTGSITAFDARETAPEHVDKQFYLDDSGEYKSFFDMTTHGKTVAVPAIPKLFDYIHKRYAKLSLEDLINPAIELAIEGHAANWATEKYSRQQHARLTKYHETAQVFTHENQYWREGDWIVQPELGKTFQILREQGFNAFYKGDIAKQLVNVVKACGGTITLEDLAKYDIQIKAPISATFKDYDIYSMGPSSSGGITVIQILKLLEHVDLPSMGPRSVDYLHHLIQAMHLAYSDRAQYLADDNFHEVPVQSLIDDDYLKARSTLIDSNKANIDIEHGVVSDCISHTDVEENHTETTHFCVIDKEGNIASFTTSIGMIYGSGITIPGYGVLLNTTMDGFDVVDGGINEIAPYKRPLSNMAPTIVMYHGKPILTVGAPGAISIIASVAQTLINVLVFGMDIQQAIDEPRIYSSHPNRIEWEPQFSQSTILALIAHGHAMEHKPDAYIGDVHGLQVDPTTYEASGGSDDTREGTVMGGEVLVIRKQPLPYRQMYDSDGFRLYFNDVQLPLLADQVRWMHDKYWVDESVVRIIFPEVSAHIEDLRSYENAGENYIDIAWLARKYAYQVTLKDDGLYLTDDTYTSVKRNTNAYYRYDRDSITR”, the protein production entry is reported as “failed”.

Regarding “MVIPFARSVPLSPNTLTLLGFAVSVAAGVAFALGKPFEGGFLILFSGVFDILDGGVARAKGRITPFGGVLDSVCDRYSDGLMFLGIMAGAIYGRLSFAPFLGVEGWLWAGFALIGSFLVSYTRARAESAGCRKLSVGIAERTERMVILALGALSGFLGWALVLIAVFSHITMIQRVLRAKSILSSPSEPESQKP”, the protein production result is on record as “failed”.

On to “MVIPFISGTLCQFQLSRWLITQAPALPCGPKLGAPTRQRRGCKVAQLWMYFLALAVVYLLPGPDMILLLQTGARQGKAQALATALGLALSRGCHVALAALGLAALFKAAPWTFDLVRLAGAAYLLWIGIQCLRANLLPNLEPGTAAATPLRWREAIQRGLLTNLLNPKALLFCSVLLPQFVDPQAGAVVPQFMTLGVLLVAVGGLFDCCYALAGAGLGRWMQRSPSAQRVQQWLFGSLLIGFALRLTFVQQA”, for which the protein production entry was “failed”.

On to “MVIPSILEQAHALAGRAVGEGGIAVDATVGNGHDTAFLAQAVGAGGAVVGFDVQEEALVETRHRLEREALSAPVRLVHAGHQTLARHLEEAERGRVGAIMFNLGYLPGGDHSVVTRPETTRQALDAGTEALRPGGVITVVAYTGHEGGDEEADAVEAWASALPQAQFRALSYRFPNWSNDPPRLFAVEKRDALEHHHHHH”, for which the protein production result is listed as “failed”.

Regarding “MVIREALLYIAMLKLEIEALQREYEDLKITKKESLHQFQEVKVEKIGEMFQVKIKSPRGENNLVNILEAFEEMGLNVAQARASCLDSFAMEAIVAPQSKDKLCSVDDLTQTLVKALVKPSVPL”, the protein production result was “failed”.

In the case of “MVIRVYIASSSGSTAIKKKQQDVLGFLEANKIGFEEKDIAANEENRKWMRENVPENSRPATGYPLPPQIFNESQYRGDYDAFFEARENNAVYAFLGLTAPPGSKEAEV”, the protein production result is listed as “not failed”.

In the case of “MVKALFSLLFVAFIWGSTFPIQKIVLVGVSPTFYIAVRFFIAALVSYFLFGKGNVKYGSILGTLLGIAYTTQTWGLTITTSTKSGFITSMYIVFVPVFAYLLEREIPTIFQIVSFFAASLGLYMISGGIKDFNFGDFLTLICAVSFALHVVLITMFSKRVKEVDLLFPQFLVVGILNLILNFFWKNWNFTLPALGSAVFTALAATILAIYLQAKYQKALGNNVSAIVFLGEPVFAAVVSYFMLGETMAGKQLLGAALLLISMLFSSLERVKIVRDANQKGRDECEDSL”, the protein production result is “failed”.

“MVKCLSAHNKAPHVSVITPSYNSRRFIGETILSVQNQSYENWEMIIVDDCSTDQSAAKIKEIIEGDSRIRLLSLKENVGAAKARNLAIREARGRYIAFLDSDDIWLPHKLKTQLLFMEEMNIAFSYASYSLIDENGNELNREVSVPKSVDYHYLVGNTIIGCLTVMIDREKIPYVEMPSVQPEDTALWLNLLHEGHEAKGIQQVLAKYRIVANSVSSNKVRAAFRYWKLLRDQKSLNAVQSFYYFSKYAYHAYKKNKINVVGKTQLLEHHHHHH”: the protein production result is on record as “failed”.

Take “MVKCMKPGKAVILLQGRYTGKKAVIVKSFDDGTVEKKYGHCLVAGLKKYPSKVIRKDSAKKTAKKSRVKCFFKVINYQHVMPTRYTLDLDLKNVVSADAISSKDKKVTALKEAKAKFEERFKTGKNRWFFTKLRF”: the protein production result is “failed”.
